This is an account of results in PMC10256740.

Experiment [1] addresses FLAG-tagged BicD2-Kif1c tail fusion (mouse) (UniProt O35071). The experiment can be described thus: centrosome recruitment assay with BicD2-kinesin tail fusions (relocalisation in cells, microscopy); N2A cells transfected with FLAG-BicD2-KIF tail fusion and EGFP-tagged RBP (2:3), fixed after 24 h, anti-FLAG staining; read-out log2 of the mean EGFP intensity at the centrosome over the mean intensity in the whole cell.

For experiment [2], the target named is FLAG-tagged BicD2-Kif1bα tail fusion (mouse) (UniProt Q60575). The experiment is described as above.
Sequence of FLAG-tagged BicD2-Kif1bα tail fusion (mouse) (Q60575 other isoform, or with tags, fused parts or gaps): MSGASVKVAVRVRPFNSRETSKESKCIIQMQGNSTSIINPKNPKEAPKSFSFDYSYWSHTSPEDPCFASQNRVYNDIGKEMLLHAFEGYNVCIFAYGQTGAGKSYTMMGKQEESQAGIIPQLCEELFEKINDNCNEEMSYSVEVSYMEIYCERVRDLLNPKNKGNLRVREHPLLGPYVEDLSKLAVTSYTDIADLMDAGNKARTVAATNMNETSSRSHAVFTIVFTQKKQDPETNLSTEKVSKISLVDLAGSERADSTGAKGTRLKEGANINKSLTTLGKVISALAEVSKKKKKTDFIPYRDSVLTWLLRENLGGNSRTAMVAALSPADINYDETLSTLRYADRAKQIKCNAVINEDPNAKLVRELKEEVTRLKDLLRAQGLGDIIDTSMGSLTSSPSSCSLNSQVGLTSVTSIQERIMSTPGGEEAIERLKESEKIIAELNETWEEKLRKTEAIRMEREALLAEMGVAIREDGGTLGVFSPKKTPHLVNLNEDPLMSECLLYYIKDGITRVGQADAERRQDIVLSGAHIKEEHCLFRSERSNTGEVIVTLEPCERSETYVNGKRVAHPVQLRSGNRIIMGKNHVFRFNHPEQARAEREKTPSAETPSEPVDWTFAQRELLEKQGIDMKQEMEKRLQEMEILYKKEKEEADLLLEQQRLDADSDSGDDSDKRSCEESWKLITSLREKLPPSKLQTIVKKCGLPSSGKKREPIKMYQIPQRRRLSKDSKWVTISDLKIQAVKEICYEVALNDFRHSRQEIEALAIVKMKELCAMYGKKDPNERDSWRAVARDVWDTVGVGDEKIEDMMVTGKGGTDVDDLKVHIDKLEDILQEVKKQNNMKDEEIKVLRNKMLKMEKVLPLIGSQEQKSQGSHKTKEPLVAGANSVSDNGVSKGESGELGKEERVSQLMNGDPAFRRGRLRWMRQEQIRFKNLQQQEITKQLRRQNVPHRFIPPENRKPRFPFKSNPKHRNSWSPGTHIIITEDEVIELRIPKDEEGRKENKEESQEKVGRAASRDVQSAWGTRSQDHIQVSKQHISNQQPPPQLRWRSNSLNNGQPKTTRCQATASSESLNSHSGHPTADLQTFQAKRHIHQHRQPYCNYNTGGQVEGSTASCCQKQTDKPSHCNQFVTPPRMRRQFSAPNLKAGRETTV
Experiment [3] deals with mScarlet-I-Kif1bα (full-length kinesin) (mouse) (UniProt Q60575). The experiment can be described thus: co-IP; N2A cells 48 h after co-transfection of EGFP-MBNL1-41 and mScarlet-Kif plasmids; lysis in 10 mM Tris-HCl pH 7.5, 150 mM NaCl, 0.5 mM EDTA, 0.5% NP-40; RFP-Trap magnetic agarose 1 h at 4 °C; western blot, quantitation normalized to input. For orientation: A western blot detects proteins with antibodies after separation by electrophoresis.
Sequence of mScarlet-I-Kif1bα (full-length kinesin) (mouse) (Q60575 other isoform, or with tags, fused parts or gaps): as above

Experiment [4] concerns the target mScarlet-I-Kif1c (full-length kinesin) (mouse) (UniProt O35071). The experiment is described as above.
The target in experiment [5] is FLAG-tagged BicD2-Kif1c tail fusion (mouse) (UniProt O35071). The experiment can be described thus: centrosome recruitment assay with BicD2-kinesin tail fusions (relocalisation in cells, microscopy); N2A cells transfected with FLAG-BicD2-KIF tail fusion and EGFP-tagged RBP (2:3), fixed after 24 h, anti-FLAG staining; read-out log2 of the mean EGFP intensity at the centrosome over the mean intensity in the whole cell. This is another data set of the same source.
Sequence of FLAG-tagged BicD2-Kif1c tail fusion (mouse) (O35071 whole entry, the tested form may be a part): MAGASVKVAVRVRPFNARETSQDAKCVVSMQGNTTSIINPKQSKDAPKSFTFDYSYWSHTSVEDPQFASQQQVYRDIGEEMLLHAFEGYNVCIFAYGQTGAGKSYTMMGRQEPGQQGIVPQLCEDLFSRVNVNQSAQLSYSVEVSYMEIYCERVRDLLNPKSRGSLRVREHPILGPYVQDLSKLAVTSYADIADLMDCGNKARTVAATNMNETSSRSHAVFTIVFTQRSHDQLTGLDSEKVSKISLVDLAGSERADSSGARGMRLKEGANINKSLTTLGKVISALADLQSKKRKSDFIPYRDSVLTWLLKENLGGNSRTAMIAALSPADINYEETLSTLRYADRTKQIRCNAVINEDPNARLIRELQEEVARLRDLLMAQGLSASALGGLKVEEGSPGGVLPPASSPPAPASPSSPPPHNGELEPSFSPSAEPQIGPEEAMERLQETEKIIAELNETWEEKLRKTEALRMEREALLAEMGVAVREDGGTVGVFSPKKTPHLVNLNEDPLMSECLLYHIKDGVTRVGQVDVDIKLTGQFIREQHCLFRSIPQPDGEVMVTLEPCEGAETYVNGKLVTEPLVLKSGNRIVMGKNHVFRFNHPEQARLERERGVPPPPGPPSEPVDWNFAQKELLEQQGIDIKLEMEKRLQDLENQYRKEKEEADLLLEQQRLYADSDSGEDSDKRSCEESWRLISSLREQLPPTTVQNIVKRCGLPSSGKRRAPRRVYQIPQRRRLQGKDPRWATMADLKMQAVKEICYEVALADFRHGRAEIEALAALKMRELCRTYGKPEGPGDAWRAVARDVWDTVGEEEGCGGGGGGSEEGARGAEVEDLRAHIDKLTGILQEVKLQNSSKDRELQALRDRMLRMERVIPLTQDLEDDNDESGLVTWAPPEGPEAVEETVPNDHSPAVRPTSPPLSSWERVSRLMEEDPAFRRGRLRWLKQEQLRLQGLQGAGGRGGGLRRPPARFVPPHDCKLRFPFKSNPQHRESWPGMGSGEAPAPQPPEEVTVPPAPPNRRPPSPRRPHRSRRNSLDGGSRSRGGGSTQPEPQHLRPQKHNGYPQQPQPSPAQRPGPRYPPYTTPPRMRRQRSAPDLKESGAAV

Like-named read-outs stand apart in the source and are kept apart here.

Sequence of EGFP-MBNL1-41 (41 kDa isoform of MBNL1) (natural protein) (Q9NR56 whole entry, canonical isoform): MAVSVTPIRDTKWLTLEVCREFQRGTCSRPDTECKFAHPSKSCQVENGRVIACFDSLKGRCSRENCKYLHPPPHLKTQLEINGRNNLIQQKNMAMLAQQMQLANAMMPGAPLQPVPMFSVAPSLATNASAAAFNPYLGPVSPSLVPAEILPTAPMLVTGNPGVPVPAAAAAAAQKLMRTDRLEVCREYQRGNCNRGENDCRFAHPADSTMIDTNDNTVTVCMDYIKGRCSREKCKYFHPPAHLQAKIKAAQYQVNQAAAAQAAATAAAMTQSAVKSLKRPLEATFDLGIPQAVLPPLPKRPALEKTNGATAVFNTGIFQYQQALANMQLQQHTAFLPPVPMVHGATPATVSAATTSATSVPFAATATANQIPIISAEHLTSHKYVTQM
Sequence of EGFP-Cpsf4 (Q8BQZ5 whole entry): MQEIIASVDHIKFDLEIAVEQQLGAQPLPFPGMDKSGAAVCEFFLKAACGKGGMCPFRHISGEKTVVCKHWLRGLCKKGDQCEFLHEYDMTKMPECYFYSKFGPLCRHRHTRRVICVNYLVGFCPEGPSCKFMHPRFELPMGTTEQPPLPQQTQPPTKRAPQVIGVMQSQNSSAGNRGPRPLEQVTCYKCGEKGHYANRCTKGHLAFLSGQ
Sequence of mScarlet-I-Kif1c (full-length kinesin) (mouse) (O35071 whole entry, the tested form may be a part): as the sequence (O35071 whole entry, the tested form may be a part) above

Consider “EGFP-Cpsf4 (from UniProt Q8BQZ5 1-211) (natural protein)”, for which the log2 mean centrosome recruitment in experiment [1] came to 1.52 log2; in experiment [2] it was 1.71 log2.

In the case of “EGFP-MBNL1-41 (41 kDa isoform of MBNL1) (natural protein)”, the values for the log2 mean centrosome enrichment in experiment [1], in experiment [2] and in experiment [5] were 0.56 log2, 0.506 log2 and 0.497 log2, respectively. Moreover, the fold enrichment of co-precipitated EGFP-MBNL1 as compared to Kif1bβ in experiment [3] and in experiment [4] was 10 fold throughout.
